# According to the RNAGym collection of RNA variant scans (doi:10.7554/elife.80360):
# B1: Hairpin Ribozyme (parent)
# chain: GUCCUCUUUCACGUGCGCGUGAAAGAGAGAAGUGAACCAGAGAAACACACGUUGUGGUAUAUUACCUGGUA
# Variants of: B1
# Test: self-cleavage, relative activity (ratio to wild type); higher = more cleavage; co-transcriptional
row,Variant,self-cleavage
1,A24C A26G,0.835
2,A24C A26C,0.338
3,A24C A26U,0.463
4,A24C C38A,0.228
5,G25U A45C,0.219
6,G25C A28U,0.327
7,A24G U62A,0.316
8,A24G A71U,0.667
9,A24G A71G,1.07
10,A23U A35G,0.967
11,A23U A35C,0.848
12,G25A A49C,0.232
13,G25C G51U,0.624
14,A24C G25C,0.315
15,A24U G56A,0.212
16,G25C A41G,0.298
17,G25C A41C,0.622
18,A23U C66A,0.294
19,G25U A41U,1.08
20,G25U A26C,0.21
21,G25U A26G,0.421
22,A24C G29U,0.0732
23,A24C G29A,0.0206
24,A24C G29C,0.208

row,Variant,self-cleavage
1,A24U A45C,0.179
2,A24C A36U,0.556
3,A23U G57C,0.211
4,A23U G57U,0.307
5,A24G G69C,0.238
6,A24G A39U,0.473
7,G25A U70A,0.519
8,A24C G57U,0.14
9,A24C G57C,0.131
10,G25A A61G,0.208
11,G25C A71C,1.02
12,A23U G32C,0.231
13,A24G U60A,0.861
14,A24G U60G,0.661
15,A24C G68C,0.255
16,A24C G68U,0.223
17,A24G A30U,0.124
18,A24G A30C,0.119
19,A24G A43C,0.19
20,A24G A43U,0.104
21,A24U C50U,0.307
22,G25C U70C,0.401
23,G25C U70A,0.574
24,G25A U67A,0.118

row,Variant,self-cleavage
1,G25C A31G,0.153
2,G25A U55A,0.149
3,G25U C37U,0.427
4,G25U C37G,0.182
5,A24G A64G,0.533
6,A24C A28G,1.13
7,A24C A28U,0.592
8,G25C C48A,0.129
9,G25C C48U,0.187
10,G25C C48G,0.127
11,A24U C48G,0.245
12,A23U U70C,0.909
13,A24C G42A,0.195
14,A24C G42C,0.342
15,A24U A41C,1.1
16,A24U A41U,1.17
17,A24C A59C,0.209
18,A24U A36C,0.517
19,A24C A61C,0.139
20,A24C A61G,0.156
21,A24C A61U,0.189
22,G25A G42C,0.182
23,A24G C46A,0.107
24,A24G C46G,0.105

row,Variant,self-cleavage
1,G25U G42A,0.144
2,G25A A28G,0.849
3,A24C U52C,0.872
4,A23U U60A,0.819
5,A24G U52G,0.687
6,A24G U52C,0.762
7,A24U G54U,0.476
8,A24U A39U,0.38
9,A23U A71G,0.876
10,G25U G57U,0.179
11,G25A C46G,0.135
12,A24U A35G,0.751
13,G25A G27C,0.155
14,G25A G51U,0.724
15,A24U G57A,0.196
16,G25A A36C,0.301
17,G25A A36G,0.605
18,G25A A45G,0.24
19,A23U C37A,0.324
20,A23U G40U,0.134
21,A23U G40C,0.1
22,G25C A35U,0.228
23,A23U A31G,0.805
24,G25A G54U,0.392

row,Variant,self-cleavage
1,G25A G54C,0.219
2,G25A G54A,0.292
3,A24C U53A,1.08
4,A24C U53C,0.735
5,G25A C38A,0.173
6,G25A C38G,0.252
7,G25C A43G,0.116
8,A24U G69U,0.192
9,G25A G32A,0.216
10,G25C U33A,0.0816
11,G25U G34A,0.897
12,A24G A61C,0.203
13,A24U A61G,0.231
14,A24U U63A,0.237
15,A24U U63G,0.146
16,G25C U60A,0.392
17,G25C U60G,0.297
18,A24U A30U,0.168
19,A24U A30C,0.332
20,G25A A47U,0.108
21,G25U A43C,0.166
22,G25U G69A,0.261
23,G25U A64U,0.142
24,G25U A64G,0.428

row,Variant,self-cleavage
1,A24G U63G,0.154
2,A23U C48A,0.157
3,A23U U33C,0.144
4,A24U C65G,0.302
5,G25U A61C,0.231
6,G25U A61G,0.178
7,G25A A71G,0.66
8,G25A A71U,0.553
9,A24C A64G,0.503
10,A24U G42A,0.257
11,A24U G27U,0.199
12,A24C G51U,0.878
13,G25U G68A,0.183
14,G25C A26U,0.248
15,G25C A26C,0.199
16,G25C C38A,0.0929
17,A23U A59C,0.0742
18,A23U A59U,0.189
19,G25A A31U,0.0553
20,A24G U67C,0.222
21,A24G U67G,0.263
22,A24C C37A,0.352
23,A24C C48G,0.133
24,A24C A39C,0.554

row,Variant,self-cleavage
1,A24U A44C,0.252
2,A24U A44G,0.119
3,G25U G27U,0.17
4,G25U G27A,0.131
5,G25U G27C,0.254
6,G25U A28C,0.233
7,G25U A28G,0.971
8,A23U U62G,0.171
9,A23U U62C,0.247
10,A24G A59U,0.153
11,A24G A59C,0.213
12,A24C U67A,0.185
13,A24C U67G,0.27
14,A24U A59C,0.139
15,G25C G42C,0.236
16,G25C G42U,0.182
17,G25C U52A,0.594
18,G25C U52G,0.356
19,A23U G34U,1.34
20,G25C A49C,0.136
21,A24U U58C,0.834
22,A24U U58G,0.483
23,A24U U58A,0.724
